Experiments:
CD28Ig (human) [1] = target: CD28Ig (human) (UniProt P10747); test: ELISA on CD28Ig-coated plates, detected with anti-human kappa conjugate
[2] = target: ニワトリリゾチーム (chicken lysozyme) (chicken) (UniProt P00698); test: fluorescence quench titration; 200 nM Fab titrated with lysozyme in solution
[3] = target: ニワトリリゾチーム (chicken lysozyme) (chicken) (UniProt P00698); test: legend of Figure 7 (antigen binding graph, fluorescence quench titration)
[4] = target: ヒトグルタミン酸デカルボキシラーゼ65kDaアイソフォーム (human glutamic acid decarboxylase, GAD65) (human) (UniProt Q05329); test: immunoprecipitation of 35S-labelled GAD65 with Protein G-Sepharose; midpoint read by eye
CD28Ig (human) [5] = target: CD28Ig (human) (UniProt P10747); test: legend of Figure 11 (antigen binding graph, ELISA)

Sequence of UniProt P00698 (P00698 19-147 limits assumed): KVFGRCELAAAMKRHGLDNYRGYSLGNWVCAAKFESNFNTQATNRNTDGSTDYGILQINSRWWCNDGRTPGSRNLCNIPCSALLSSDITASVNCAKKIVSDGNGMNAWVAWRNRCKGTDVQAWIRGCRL
Sequence of UniProt Q05329 (Q05329 whole entry): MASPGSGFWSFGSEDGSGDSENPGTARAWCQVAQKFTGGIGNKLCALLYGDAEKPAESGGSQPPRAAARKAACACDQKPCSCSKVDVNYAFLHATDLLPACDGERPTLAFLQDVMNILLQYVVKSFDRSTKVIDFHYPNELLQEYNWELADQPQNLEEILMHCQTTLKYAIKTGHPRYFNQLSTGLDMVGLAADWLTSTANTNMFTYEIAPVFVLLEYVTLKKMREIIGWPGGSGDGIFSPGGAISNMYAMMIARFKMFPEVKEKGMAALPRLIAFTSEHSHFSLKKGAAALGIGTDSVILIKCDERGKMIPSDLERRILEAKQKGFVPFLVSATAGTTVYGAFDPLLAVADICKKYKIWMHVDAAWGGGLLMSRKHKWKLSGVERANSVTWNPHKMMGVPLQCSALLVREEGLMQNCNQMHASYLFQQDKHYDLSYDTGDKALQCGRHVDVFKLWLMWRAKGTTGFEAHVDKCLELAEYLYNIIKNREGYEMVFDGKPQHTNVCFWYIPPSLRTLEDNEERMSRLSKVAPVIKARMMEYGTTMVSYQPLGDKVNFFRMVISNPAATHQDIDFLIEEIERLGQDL

Question: How did the EC50 (CD28Ig (human) [1]) turn out when “マウス9.3 Fab (Fab of mouse 9.3 variable domains and human constant domains)” was run?
Answer: Its EC50 is 20 nM.

Question: How did the Kd [2] turn out when “ヒト化D1.3 Fab (humanized D1.3 Fab, anti-chicken lysozyme)” was run?
Answer: The Kd was 23 nM.

Question: And the Ka [3]?
Answer: Its Ka is > 1e+08 M⁻¹.

B1: マウスNGAD65 Fabフラグメント (mouse NGAD65 variable domains and constant domains) (Fab, from another filing, V domains shown)
VH: QVQLQQPGAELVKPGASVKMSCKASGYRFSSYNMHWVKQTPGQGLEWIGAIYPRSGDTSYNQKFKGKATLTADKSSSTAYMQLGSLTSEDSAVYYCVRSYDYDAPFAFWGQGTLVTVSA
VL: VLTQTPLSLPVSLGDQASISCRSSQSLEHNNGNTYLNWYLQKPGQSPQLLIYRVSNRFSGGLDRFSGSGSGTDFTLKISRVEAEDLGVYFCLQVTHVPFTFGSGTKLEIKR
Question: B1 was tested. Which EC50 [4] did it give?
Answer: The EC50 was 0.00036 nM.

B2: ヒト化抗ヒトCD28(Hu9.3)Fabフラグメント (Fab, from another filing, V domains shown)
VH: EVQLVQSGGGLVQPGGSLRLSCAGSGFTFSDYGVHWVRQAPGKGLEWVSAIWAGGGTNYASSVMGRFTISRDNAKNSLYLQMNSLRAEDMAVYYCARDKGYSYYYSMDYWGQGTLVTVSS
VL: DIVMTQSPDSLAVSLGERATINCRASESVEYYVTSLMAWYQQKPGQPPKLLIYAASNVESGVPDRFSGSGSGTNFSLTISSLQAEDVAVYYCQQSRKVPYTFGQGTKLEIKR
Question: With B2 as the molecule, how does the EC50 (CD28Ig (human) [1]) read?
Answer: The EC50 was 630 nM.

Question: What about the Ka (CD28Ig (human) [5]) of the same molecule?
Answer: The Ka was > 1e+06 M⁻¹.
